Target: biotinylated preS1 peptide, residues 69–108 (hepatitis B virus (residues numbered …, C-terminal biotin))
Test: BLI

B1: sEGF4–6-hFc (soluble fusion protein comprising SCARF2's EGF4–6 domains, with an N-terminal HA tag an (Fc fusion)
chain: GSYPYDVPDYAGSSACYCSATSRCDPQTGACLCHAGWWGRSCNNQCACNSSPCEQQSGRCQCRERTFGARCDRYCQCFRGRCHPVDGTCACEPGYRGKYCR
koff: 0.000289 s⁻¹
